Article PMC2937010

Biological target: RMI1 OB2 domain (C-terminal OB fold of RMI1, residues 473-625) (human) (UniProt Q9H9A7)
Test: SEC

stoichiometry N: 1
Substance: RMI2 (RMI core complex, wild type) (natural protein)
